From publication PMC7415566 (Structure (London, England : 1993), 2020)
Where a chain is given by its changes, count along the chain named. Names may count otherwise.

B1: CPB1-2 of human PLK4 (residues 580-810) (domain or fragment, UniProt O00444 580-810, looked up)
chain: WGYQNRTLRSITSPLVAHRLKPIRQKTKKAVVSILDSEEVCVELVKEYASQEYVKEVLQISSDGNTITIYYPNGGRGFPLADRPPSPTDNISRYSFDNLPEKYWRKYQYASRFVQLVRSKSPKITYFTRYAKCILMENSPGADFEVWFYDGVKIHKTEDFIQVIEKTGKSYTLKSESEVNSLKEEIKMYMDHANEGHRICLALESIISEEERKTRSAPFFPIIIGRKPGST
B2: CPB1-2 of human PLK4 (residues 580-810) N669R (domain or fragment, UniProt O00444 580-810, looked up)
chain: B1 chain with N90R

Assays:
[1] = target: T1, human FAM46C (residues 16-358), NTase domain (human, UniProt Q5VWP2 16-358); assay: crystal structure
T1 sequence (looked up): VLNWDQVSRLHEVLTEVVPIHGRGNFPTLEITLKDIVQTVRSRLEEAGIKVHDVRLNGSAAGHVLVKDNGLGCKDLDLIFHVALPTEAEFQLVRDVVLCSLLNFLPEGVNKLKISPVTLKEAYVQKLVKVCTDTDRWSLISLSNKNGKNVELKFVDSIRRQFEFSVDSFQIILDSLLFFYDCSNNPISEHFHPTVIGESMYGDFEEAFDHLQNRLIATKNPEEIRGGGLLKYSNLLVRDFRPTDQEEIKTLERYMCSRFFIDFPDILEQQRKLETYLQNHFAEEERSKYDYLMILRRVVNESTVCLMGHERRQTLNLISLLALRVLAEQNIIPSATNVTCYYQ

[2] = target: T2, FAM46C E166Q/F193D/F206D (residues 16-350) (human, UniProt Q5VWP2 16-350, E166Q | F193D | F206D); assay: crystal structure
T2 sequence (looked up): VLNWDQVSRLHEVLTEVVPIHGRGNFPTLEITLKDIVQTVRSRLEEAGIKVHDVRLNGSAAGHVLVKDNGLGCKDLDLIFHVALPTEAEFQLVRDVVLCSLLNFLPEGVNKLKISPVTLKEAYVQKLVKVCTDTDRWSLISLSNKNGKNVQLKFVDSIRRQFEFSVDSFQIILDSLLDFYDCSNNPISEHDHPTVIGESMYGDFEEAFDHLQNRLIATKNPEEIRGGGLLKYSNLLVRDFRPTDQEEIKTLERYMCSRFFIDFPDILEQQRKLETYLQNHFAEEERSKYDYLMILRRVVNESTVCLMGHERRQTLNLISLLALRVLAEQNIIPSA

[3] = target: T3, GST-tagged FAM46C (residues 16-358) (human, UniProt Q5VWP2 16-358); assay: pull-down
T3 sequence (looked up): T1 sequence (looked up)

[4] = target: T4, GST-tagged FAM46D (residues 7-340) (human, UniProt Q8NEK8 7-340); assay: pull-down
T4 sequence (looked up): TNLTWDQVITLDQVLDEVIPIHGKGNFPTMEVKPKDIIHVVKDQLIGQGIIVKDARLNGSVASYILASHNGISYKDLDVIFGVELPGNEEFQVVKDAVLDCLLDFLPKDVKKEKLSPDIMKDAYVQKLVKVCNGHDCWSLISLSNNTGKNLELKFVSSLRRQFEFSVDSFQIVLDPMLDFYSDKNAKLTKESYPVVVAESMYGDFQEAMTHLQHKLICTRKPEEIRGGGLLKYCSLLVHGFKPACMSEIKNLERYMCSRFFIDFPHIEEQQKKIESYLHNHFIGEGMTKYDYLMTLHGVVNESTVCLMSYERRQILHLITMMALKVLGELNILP

binding result [1] | binding result [2] | binding result [3] | binding result [4] | Binder
binds | binds | binds | binds | B1
– | – | binds | – | B2
